# Measurements from the supplement of paper PMC9170038.
# Test system: MS2 coat protein
# Assay: apparent KD of MS2 coat protein; designed switch direction (-1 OFF switch, 1 ON switch): -1; higher = weaker reporter binding
# In short: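 An oligonucleotide input, 200 uM small-molecule ligand, or no input was present during titration of SNAP-549-labelled MS2 coat protein, which was doubled from 0.7 or 1.5 nM to 3 µM. Designed RNA switches had been transcribed on Illumina chips by stalled E. coli RNA polymerase. Apparent KD per design is the median over clusters of curves fitted to normalised cluster fluorescence.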
# [1] = Eterna round: R95, input ligand: microRNA oligo, concentration not stated
# [2] = Eterna round: R95, input ligand: FMN 200 uM
# [3] = Eterna round: R95, input ligand: none
# [4] = input ligand: microRNA oligo, concentration not stated
sequence,measurement,setting,value
"GCCGUCAGUGUGAGGAUAUGCCUAUGGAUACGUAGGCAGAAGGCACAUGAGGAUCACCCAUGUCCAAAGACGGC [JL-BMX4-4.30 Eli mod] (Eterna round: R97, puzzle: Brourd's mod of Exclusion 4)",apparent KD of MS2 coat protein,input ligand: FMN 200 uM,520 nM
same,apparent KD of MS2 coat protein,input ligand: none,181 nM
GCCUCACAUGAGGAUCACCCAUGUCAGGAUAUAGGAGACGGUAGCUUUGCUGCCUUCGCUAGAAGGGACUGGCU (puzzle: Exclusion 1),apparent KD of MS2 coat protein,[1],29.7 nM
"GCCUUAGGAGUCAGGAUAUACAAUAAAAUAAUUAAGUAGAAGGGACAUGAGGAUCACCCAUGUACAUUACAUUG [alecazam29] (Eterna round: R97, puzzle: Brourd's mod of Exclusion 4)",apparent KD of MS2 coat protein,input ligand: FMN 200 uM,31 nM
same,apparent KD of MS2 coat protein,input ligand: none,13.6 nM
"GCCUUAUCCGUCAGGAUAUACAGCCGCUCCUUGUUGUAGAAGGGACAUGAGGAUCACCCAUGUACGUACCAUUG [alecazam5] (Eterna round: R97, puzzle: Brourd's mod of Exclusion 4)",apparent KD of MS2 coat protein,input ligand: FMN 200 uM,25.4 nM
same,apparent KD of MS2 coat protein,input ligand: none,24.7 nM
"GCGAAAACAAACAGGUGAAACAUGAGGAUCACCCAUGUCCUCAUUUGCUCGUCUUAUAAGCUAUGCGAAAGCAUAGC [Mat - Sensor v3 - turn-off var 1 - Eli Mod - D55] (puzzle: Sensor v3, turn-off variant 1)",apparent KD of MS2 coat protein,[2],283 nM
same,apparent KD of MS2 coat protein,[1],200 nM
same,apparent KD of MS2 coat protein,[3],348 nM
"GCGAAAGCAAAACAAGUGAACAUGAGGAUCACCCAUGUCCUCAUUUGCUCGUCUUAUAAGCUAUGCGAAAGCAUAGC [Sensor 3, v1 - 9] (puzzle: Sensor v3, turn-off variant 1)",apparent KD of MS2 coat protein,[2],99 nM
same,apparent KD of MS2 coat protein,[1],1220 nM
same,apparent KD of MS2 coat protein,[3],96.7 nM
"GCGAUAACCGAGGAUAUCGGUGAUAGAGAUAAUUGAGAAGGCGGUACAUGAGGAUCACCCAUGUAUACGUGGGC [Eternabot (L2) Solution 87] (Eterna round: R97, puzzle: Exclusion 6)",apparent KD of MS2 coat protein,input ligand: FMN 200 uM,16.7 nM
same,apparent KD of MS2 coat protein,input ligand: none,15.7 nM
"GCGCAAACGCCAAAAGGCGAAACAACAUGAGGAUCACCCAUGUAGGAUAUCGAUUGCUUUGCAGUCGAGAAGGGCAUAAUGCGC [JL ENG3 3.80 Mod 4] (Eterna round: R96, puzzle: Exclusion NG 3)",apparent KD of MS2 coat protein,input ligand: FMN 200 uM,15.4 nM
same,apparent KD of MS2 coat protein,[4],13 nM
same,apparent KD of MS2 coat protein,input ligand: none,16.6 nM
"GCGCACCUACCAAAAGGUAGGCCGACAUGAGGAUCACCCAUGUAGGAUAUCGAUUGCUUUGCAGUCGAGAAGGACGUGAUGCGC [JL ENG3 3.80 Mod 18] (Eterna round: R96, puzzle: Exclusion NG 3)",apparent KD of MS2 coat protein,input ligand: FMN 200 uM,20.1 nM
same,apparent KD of MS2 coat protein,[4],14.7 nM
same,apparent KD of MS2 coat protein,input ligand: none,19.4 nM
"GCGCCAUCGUGAGAUGGCGUACCGACAUGAGGAUCACCCAUGUAGGAUAUCGAUUGCUUUGCAGUCGAGAAGGGCGUGAUAAGU [JL ENG3 3.74] (Eterna round: R96, puzzle: Exclusion NG 3)",apparent KD of MS2 coat protein,input ligand: FMN 200 uM,27.8 nM
same,apparent KD of MS2 coat protein,[4],24.7 nM
same,apparent KD of MS2 coat protein,input ligand: none,29.5 nM
"GCGCCAUCGUGAGAUGGCGUAUAUACAUGAGGAUCACCCAUGUAGGAUAUCGAUUGCUUUGCAGUCGAGAAGGGCGUGAUAAUU [JL ENG3 3.69] (Eterna round: R96, puzzle: Exclusion NG 3)",apparent KD of MS2 coat protein,input ligand: FMN 200 uM,109 nM
same,apparent KD of MS2 coat protein,[4],60.5 nM
same,apparent KD of MS2 coat protein,input ligand: none,82 nM
GCGUCGAGUGUGAGGAUAUGCUGGUCCUUGGAUCAGCAGAAGGCACAUGAGGAUCACCCAUGUGAAAACGAUGC [Mat - Exclusion 4 - JL Mod - D68] (puzzle: Brourd's mod of Exclusion 4),apparent KD of MS2 coat protein,[1],18.8 nM
"GCGUGGACUGAGGAUAUCCGAACGGUGCACGGAGGAGAAGGUAGGACAUGAGGAUCACCCAUGUGAACCUAGAU [Ceinormaat] (Eterna round: R97, puzzle: Exclusion 6)",apparent KD of MS2 coat protein,input ligand: FMN 200 uM,20.6 nM
same,apparent KD of MS2 coat protein,input ligand: none,19.8 nM
"GCUAGAGCAGGAUAUUUAGAUCCUCACAUGAGGAUCACCCAUGUGGCCGAAAGGCUAAGGAGAGAAGGGCUCUAGC [Omei Ex5 E23] (Eterna round: R97, puzzle: Exclusion 5)",apparent KD of MS2 coat protein,input ligand: FMN 200 uM,1580 nM
same,apparent KD of MS2 coat protein,input ligand: none,933 nM
"GCUAGGAGUGUGAGGAUAUGCUGAUCCUUGGAUCAGCAGAAGGCACAUGAGGAUCACCCAUGUGAAGACCUAGC [Mat - Exclusion 4 - JL Mod - D2] (Eterna round: R97, puzzle: Brourd's mod of Exclusion 4)",apparent KD of MS2 coat protein,input ligand: FMN 200 uM,169 nM
same,apparent KD of MS2 coat protein,input ligand: none,30 nM
"GCUCGUCUUGUAAUGUUUAACAUGAGGAUCACCCAUGUCACCAACGUCGGAGAUGCAGGUUCAUGUUUUAAUGUAUA [Eternabot (L2) Solution 23] (Eterna round: R97, puzzle: Sensor, turn-off variant 1)",apparent KD of MS2 coat protein,input ligand: FMN 200 uM,83.5 nM
same,apparent KD of MS2 coat protein,input ligand: none,82.6 nM
"GCUGAAGGGUCGAUUACCAACAUGAGGAUCACCCAUGUUCGGAAUAAUUACAGGUUCGCUCGUCUCGAUGAAAGUCC [Eternabot (L1) Solution 19] (Eterna round: R97, puzzle: Sensor, turn-off variant 1)",apparent KD of MS2 coat protein,input ligand: FMN 200 uM,19.3 nM
same,apparent KD of MS2 coat protein,input ligand: none,21.7 nM
"GCUGCACAUGUAGGAUAUCUGCACGUUUAGUGCAGAGAAGGACAUGAGGAUCACCCAUGUAGAUCAGCAGCAAUUAAUUUAAUU [ENG1/6-A3] (Eterna round: R96, puzzle: Exclusion NG 1)",apparent KD of MS2 coat protein,input ligand: FMN 200 uM,809 nM
same,apparent KD of MS2 coat protein,[4],479 nM
same,apparent KD of MS2 coat protein,input ligand: none,473 nM
"GCUGGACAAGGAUAUGCAAUCGUGCUUCGGCACGUAAGGUCACAUGAGGAUCACCCAUGUAGAAGGUGUCCAGC [E2/4-C2] (Eterna round: R97, puzzle: Exclusion 2)",apparent KD of MS2 coat protein,input ligand: FMN 200 uM,31.3 nM
same,apparent KD of MS2 coat protein,input ligand: none,16.1 nM
"GCUGGGUCAGGAUAUACAGGGUCGAAAGAUCUGUGAUACCUACAUGAGGAUCACCCAUGUAGAAGGGACUGGGC [ChP 11-04-2015 #10] (Eterna round: R96, puzzle: Exclusion 2)",apparent KD of MS2 coat protein,input ligand: FMN 200 uM,43.9 nM
same,apparent KD of MS2 coat protein,[4],14 nM
same,apparent KD of MS2 coat protein,input ligand: none,18.9 nM
GCUGGGUCAGGAUAUACAGGGUCGAAAGAUCUGUGAUACCUACAUGAGGAUCACCCAUGUAGAAGGGACUGGGC [ChP 11-04-2015 #10] (puzzle: Exclusion 2),apparent KD of MS2 coat protein,[1],14.2 nM
GCUGGGUCAGGAUAUACGAGAUCGAAAGAUCGAAGAUCCGUACAUGAGGAUCACCCAUGUAGAAGGGACUGGGC [ChP 11-04-2015 #7] (puzzle: Exclusion 2),apparent KD of MS2 coat protein,[1],19.5 nM
"GCUGGUCGAGGAUAUACAUGAGGAUCACCCAUGUGAUCAGCAGUCCUCGGACUGCAAUGUAGAAGGUGACCAGC [E3/1-B1] (Eterna round: R97, puzzle: Exclusion 3)",apparent KD of MS2 coat protein,input ligand: FMN 200 uM,583 nM
same,apparent KD of MS2 coat protein,input ligand: none,2270 nM
GCUUGGCGAGGAUAUACAUGAGGAUCACCCAUGUGAGAGAAAAAAGUGAGGAAGAAAAGUAGAAGGCGCUGAGG [Mat - Exclusion 3 - Mod of Salish D57] (puzzle: Exclusion 3),apparent KD of MS2 coat protein,[2],143 nM
same,apparent KD of MS2 coat protein,[1],51.2 nM
same,apparent KD of MS2 coat protein,[3],61.8 nM
"GCUUGUAGAGGAUAUACGAGGGCCCGAGCGGCGAGAGCCGCACAUGAGGAUCACCCAUGUAGAAGGCUACUAUU [JL-ex2-4.19 ViennaUCT mod] (Eterna round: R97, puzzle: Exclusion 2)",apparent KD of MS2 coat protein,input ligand: FMN 200 uM,358 nM
same,apparent KD of MS2 coat protein,input ligand: none,133 nM
GGAAAACAUGAGGAUCACCCAUGUAAGGAUAUGCAAAAGGAUAUAGAAGGAAAAAUAAGCAGAAGGUACAAAGG [salish99-ex1_r3_097] (puzzle: Exclusion 1),apparent KD of MS2 coat protein,[2],50.9 nM
same,apparent KD of MS2 coat protein,[1],42.5 nM
same,apparent KD of MS2 coat protein,[3],43.5 nM
"GGAAACCUACCGCGACAUGAGGAUCACCCAUGUGAUUGGUUUUAGGAUAUCUGGAGAAUCCAGACAGAGAAGGAGGGCCGUCGC [Eternabot solution 38] (Eterna round: R96, puzzle: Exclusion NG 3)",apparent KD of MS2 coat protein,input ligand: FMN 200 uM,77.5 nM
same,apparent KD of MS2 coat protein,[4],28.5 nM
same,apparent KD of MS2 coat protein,input ligand: none,45.1 nM
GGAAAGGUAGGAUAUACGAAGAAAAAGGGUAGAAGAAGAACACAUGAGGAUCACCCAUGUAGAAGGACCAAAGC [Mat - Exclusion 2 - Mod of my Tesla design - D15] (puzzle: Exclusion 2),apparent KD of MS2 coat protein,[2],56.5 nM
same,apparent KD of MS2 coat protein,[1],20.9 nM
same,apparent KD of MS2 coat protein,[3],23.9 nM
GGAAAGGUAGGAUAUACGAAGAAAAAGGGUAGAAGAAUAACACAUGAGGAUCACCCAUGUAGAAGGACCAAAGC [Mat - Exclusion 2 - Mod of my Tesla design - D14] (puzzle: Exclusion 2),apparent KD of MS2 coat protein,[2],96.8 nM
same,apparent KD of MS2 coat protein,[1],25.1 nM
same,apparent KD of MS2 coat protein,[3],25.8 nM
"GGAAGGCGAGGAUAUGCAAUAAAGCAGGCGAAGGCCUGCAAACAUGAGGAUCACCCAUGUAGAAGGCGCGAGAA [AK-MS2ROC-r4-exclusion2-6.6] (Eterna round: R97, puzzle: Exclusion 2)",apparent KD of MS2 coat protein,input ligand: FMN 200 uM,17.2 nM
same,apparent KD of MS2 coat protein,input ligand: none,26.1 nM
